The labels stand for the following.
B1: ΔIRE1-V5/His (ER lumenal domain of human IRE1) [human] / FLAG-tagged full-length wild-type IRE1 [human] (parent)
chain 1: IFGSTSTVTLPETLLFVSTLDGSLHAVSKRTGSIKWTLKEDPVLQVPTHVEEPAFLPDPNDGSLYTLGSKNNEGLTKLPFTIPELVQASPCRSSDGILYMGKKQDIWYVIDLLTGEKQQTLSSAFADSLCPSTSLLYLGRTEYTITMYDTKTRELRWNATYFDYAASLPEDDVDYKMSHFVSNGDGLVVTVDSESGDVLWIQNYASPVVAFYVWQREGLRKVMHINVAVETLRYLTFMSGEVGRITKWKYPFPKETEAKSKLTPTLYVGKYSTSLYASPSMVHEGVAVVPRGSTLPLLEGPQTDGVTIGDKGECVITPSTDVKFDPGLKSKNKLNYLRNYWLLIGHHETPLSASTKMLERFPNNLPKHRENVIPADSEKKSFEEVINLVDQTSENAPTTVSRDVEEKPAHAPARPEAPVDSMLKDMATIILSTFLLIGWVAFIITYPLSMHQQQQLQHQQFQKELEKIQLLQQQQQQLPFHPPGDTAQDGELLDTSGPYSESSGTSSPSTSPRASNHSLCSGSSASKAGSSPSLEQDDGDEETSVVIVGKISFCPKDVLGHGAEGTIVYRGMFDNRDVAVKRILPECFSFADREVQLLRESDEHPNVIRYFCTEKDRQFQYIAIELCAATLQEYVEQKDFAHLGLEPITLLQQTTSGLAHLHSLNIVHRDLKPHNILISMPNAHGKIKAMISDFGLCKKLAVGRHSFSRRSGVPGTEGWIAPEMLSEDCKENPTYTVDIFSAGCVFYYVISEGSHPFGKSLQRQANILLGACSLDCLHPEKHEDVIARELIEKMIAMDPQKRPSAKHVLKHPFFWSLEKQLQFFQDVSDRIEKESLDGPIVKQLERGGRAVVKMDWRENITVPLQTDLRKFRTYKGGSVRDLLRAMRNKKHHYRELPAEVRETLGSLPDDFVCYFTSRFPHLLAHTYRAMELCSHERLFQPYYFHEPPEPQPPVTPDAL
chain 2: IFGSTSTVTLPETLLFVSTLDGSLHAVSKRTGSIKWTLKEDPVLQVPTHVEEPAFLPDPNDGSLYTLGSKNNEGLTKLPFTIPELVQASPCRSSDGILYMGKKQDIWYVIDLLTGEKQQTLSSAFADSLCPSTSLLYLGRTEYTITMYDTKTRELRWNATYFDYAASLPEDDVDYKMSHFVSNGDGLVVTVDSESGDVLWIQNYASPVVAFYVWQREGLRKVMHINVAVETLRYLTFMSGEVGRITKWKYPFPKETEAKSKLTPTLYVGKYSTSLYASPSMVHEGVAVVPRGSTLPLLEGPQTDGVTIGDKGECVITPSTDVKFDPGLKSKNKLNYLRNYWLLIGHHETPLSASTKMLERFPNNLPKHRENVIPADSEKKSFEEVINLVDQTSENAPTTVSRDVEEKPAHAPARPEAPVDSMLKD

This test covers variants of B1. The experiment in a line: co-immunoprecipitation (IP: V5, Western blot for FLAG, quantified). The settings on record: with FLAG-tagged full-length wild-type IRE1 [human]; with Sig-1R overexpression; non-stressed cells; n = 4; read off a plot.
For chain 2 D105P, the screen value is 58%.

These data come from publication PMC3799859.
